From PMC3100304, “The Interplay between NF-kappaB and E2F1 Coordinately Regulates Inflammation and Metabolism in Human Cardiac Cells” (PLoS ONE, 2011)

Target: T1, p65 subunit of NF-κB (human (endogenous in AC16), UniProt Q04206 1-551)
T1 construct: p65 subunit of NF-κB (RelA), endogenous in human cardiac AC16 cells; precipitated with an anti-p65 antibody; also called RelA/p65; source: endogenous, human cardiac AC16 cells, nuclear extract
Assay: co-IP; AC16 nuclear extracts (25 µg) precipitated with 4 µg anti-p65 and protein A-agarose at 4°C, blotted with anti-E2F1; cells with or without TNF-α (100 ng/ml, 24 h), parthenolide (10 µmol/L), siRNA to p65, or LacZ- or E2F1-carrying plasmids
Conditions: partners not purified

T1 sequence (Q04206 whole entry): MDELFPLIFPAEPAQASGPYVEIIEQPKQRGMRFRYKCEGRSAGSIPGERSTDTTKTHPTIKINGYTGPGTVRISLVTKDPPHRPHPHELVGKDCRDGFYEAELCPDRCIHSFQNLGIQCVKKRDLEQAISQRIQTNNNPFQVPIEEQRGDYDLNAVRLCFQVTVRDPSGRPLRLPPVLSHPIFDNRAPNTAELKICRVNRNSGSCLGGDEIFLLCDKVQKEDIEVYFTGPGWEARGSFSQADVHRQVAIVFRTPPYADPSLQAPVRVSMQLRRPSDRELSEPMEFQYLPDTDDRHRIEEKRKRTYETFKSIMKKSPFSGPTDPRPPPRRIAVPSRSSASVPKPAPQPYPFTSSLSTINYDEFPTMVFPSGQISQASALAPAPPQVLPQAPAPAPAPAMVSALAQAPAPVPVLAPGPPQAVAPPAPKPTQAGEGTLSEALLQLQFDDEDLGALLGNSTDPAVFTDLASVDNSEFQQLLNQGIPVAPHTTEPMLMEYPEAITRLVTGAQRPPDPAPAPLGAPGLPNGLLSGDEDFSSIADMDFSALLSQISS

fold of p65-E2F1 association vs. LacZ: 2 fold
fold of p65-E2F1 association vs. LacZ (with TNF-α): 4 fold
B1: E2F1 overexpressed from the pSG5L/E2F1 construct (natural protein)
chain: not shown
notes: human E2F1 expressed from the pSG5L/E2F1 construct (human gene, Addgene plasmid 10736); The transfected cells also hold endogenous E2F1; source: AC16 cells, transfected (Lipofectamine 2000), in nuclear extract
